Data taken from the RNAGym collection of RNA variant scans (doi:10.7554/elife.80360).

B1: Twister Ribozyme (parent)
chain: AACACUGCCAAUGCCGGUCCCAAGCCCGGAUAAAAGUGGAGGGGGCGG

Variants of: B1
Experiment: self-cleavage, relative activity (ratio to wild type); higher = more cleavage; co-transcriptional

Row | Variant | self-cleavage
1 | G16A C20A | 0.12
2 | G16C A23G | 0.092
3 | A10C A32C | 0.821
4 | C19A G44A | 0.685
5 | U31A G42A | 0.349
6 | A23U G28U | 0.279
7 | G13C A40U | 0.109
8 | A30G G48C | 1.13
9 | C3U C15A | 0.195
10 | C8A A22G | 0.107
11 | C5U G36A | 0.852
12 | C5A C9A | 0.123
13 | U37G C46U | 0.76
14 | A30U G38A | 0.987
15 | C14U G24U | 0.135
16 | A22C G47C | 0.458
17 | A34G G36C | 0.179
18 | G7C U37A | 0.0472
19 | A30U G36A | 0.762
20 | G17A G45A | 0.386
21 | U12A U18A | 0.643
22 | G17A G42U | 0.135
23 | C14A A33C | 0.884
24 | C14A A33G | 0.84

Row | Variant | self-cleavage
25 | G16A G41A | 0.364
26 | C8G A10G | 0.592
27 | C3U G16A | 0.248
28 | G29C U37C | 0.182
29 | G38A A40U | 0.118
30 | A1C A23C | 0.12
31 | U12C U37C | 0.624
32 | A4U A34C | 0.057
33 | C21A C46U | 0.13
34 | C9A C26A | 0.11
35 | C14A G44C | 0.772
36 | A10U A40G | 0.191
37 | C20A G29U | 0.103
38 | G16U G38A | 0.935
39 | A2G G42A | 0.148
40 | A33G G42C | 0.268
41 | G28C A32U | 0.813
42 | A35G G41U | 0.283
43 | A34U G45A | 0.815
44 | C14A C21G | 0.1
45 | A23G G24U | 0.063
46 | A2U G29U | 0.484
47 | A22C G41C | 0.195
48 | A10U U12G | 0.759

Row | Variant | self-cleavage
49 | A1G U12G | 0.527
50 | C8G A30G | 0.643
51 | A22U C26G | 0.0767
52 | A1U G48A | 0.0713
53 | A2G U37C | 0.0955
54 | G42A G45A | 0.422
55 | C19U G28C | 0.908
56 | C21U G28A | 0.102
57 | A1U C14A | 0.0917
58 | C25A A34C | 0.0515
59 | C15G U18A | 0.04
60 | C3A C5U | 0.159
61 | C19A G39A | 0.136
62 | U6G G24U | 0.145
63 | G38U G44C | 0.829
64 | A23G A35C | 0.499
65 | A4C C26U | 0.0418
66 | G38A G42C | 0.247
67 | G17C A22C | 0.123
68 | A2U C9A | 0.0899
69 | A30U A33C | 0.847
70 | C5G G39A | 0.197
71 | C25U G41C | 0.147
72 | A1G G17A | 0.367

Row | Variant | self-cleavage
73 | G7A U31A | 0.599
74 | A23G A40U | 0.125
75 | C8G G13C | 0.0604
76 | A22G G36C | 0.0743
77 | C21U G45C | 0.0779
78 | G24A A34U | 0.0893
79 | U6A C25U | 0.718
80 | C27G A30G | 0.0912
81 | U6G C27A | 0.0375
82 | A11U G42U | 0.33
83 | C9G C14G | 0.0866
84 | A34G G38A | 0.629
85 | C25U | 0.881
86 | C20A U37C | 0.111
87 | A35G C46G | 0.868
88 | A1G C27G | 0.178
89 | A1G C27U | 0.36
90 | A33G U37A | 0.814
91 | C26A A33C | 0.359
92 | C14U C20A | 0.154
93 | A2U U31G | 0.626
94 | U12C G47A | 0.785
95 | C5G U6C | 0.16
96 | C15A G47A | 0.39

Row | Variant | self-cleavage
97 | U6A A11C | 0.61
98 | G36U A40U | 0.141
99 | C8A C46U | 0.46
100 | G13C U37G | 0.125
101 | C25G G45A | 0.132
102 | G17U A32C | 0.263
103 | C3A A30C | 0.225
104 | C27A A35C | 0.58
105 | G7C G24C | 0.059
106 | G17U A22G | 0.103
107 | G29A G47C | 0.347
108 | C14A A30G | 0.803
109 | A1G A34U | 0.24
110 | A11G A34C | 0.353
111 | A10C G29U | 0.912
112 | C15U C25A | 0.178
113 | A32G U37A | 0.752
114 | A1C U18A | 0.14
115 | U37A G39A | 0.173
116 | G17C | 0.153
117 | C21A G28C | 0.149
118 | G29C A40G | 0.157
119 | A11G C20U | 0.797
120 | G16A G42A | 0.358

Row | Variant | self-cleavage
121 | G13A A32C | 0.689
122 | C9G C19G | 0.073
123 | C3U G24C | 0.0842
124 | C26G G28U | 0.0926
125 | U6A U12G | 0.903
126 | C8U U12G | 0.429
127 | C14U U31G | 0.941
128 | A10C C26A | 0.664
129 | C14U A22U | 0.848
130 | C20A A35U | 0.151
131 | C9U C27U | 0.37
132 | G17C U37A | 0.0865
133 | C15G A22G | 0.0636
134 | C9U G39A | 0.139
135 | A32U A33U | 0.938
136 | C25G A40C | 0.0986
137 | G13A G29U | 0.598
138 | C25U G48A | 0.559
139 | A1U C3A | 0.222
140 | C8A G16C | 0.0923
141 | C8U G29U | 0.577
142 | G17C A23G | 0.0841
143 | C9G C20G | 0.0438
144 | G13U G24A | 0.0906

Row | Variant | self-cleavage
145 | A4G G38A | 0.867
146 | A4G G43U | 0.233
147 | G29U G44U | 0.837
148 | A4C G41C | 0.0877
149 | C8G G43U | 0.148
150 | A40U C46A | 0.146
151 | C21G G47A | 0.0718
152 | A23C U37C | 0.0915
153 | G7A C9A | 0.0651
154 | U6A C21G | 0
155 | G41U G43A | 0.163
156 | C9G A33G | 0.548
157 | U18C C25A | 0.105
158 | C5G C21A | 0.0944
159 | C25G G47A | 0.153
160 | G38A G41U | 0.315
161 | A1C A34G | 0.19
162 | U6G G13U | 0.0456
163 | A22C G29A | 1.01
164 | C9U C15G | 0.0427
165 | A4U A40C | 0.0425
166 | G29U U31C | 0.972
167 | A10G C27G | 0.105
